Patent publication US20150064714A1, “Polypeptides containing a modified fragment of the peptide IF1” (LIFESEARCH, priority 2013, published 2015)
Values belong to the molecule of their own block, whether it stands above or below them. No end group written: not given here. *: point of attachment. MTSL = spin label, CC1(C)C=C(CS*)C(C)(C)N1[O]

What was measured:
[1] = system: F1-ATPase or SMP (F0F1-ATPase); assay: Measurement of the affinity of a labelled polypeptide for the ATPase (kinetics of inhibition of ATP hydrolysis, NADH disappearance at 340 nm); type: biochemical; settings: kinetic results; 25° C., pH 6.5; polypeptide 15 nM to 2 μM
Procedure: The hydrolysis of ATP by F1-ATPase or SMP (F0F1-ATPase) was measured according to the reaction illustrated below by following the disappearance of NADH over time at 340 nm.
This reaction is carried out in a thermostatically controlled vessel (25° C.) in which the reaction medium pH 6.5 (50 mM MES, 20 mM KCl, 1 mM MgCl2, 0.4 mM NADH, 1 mM PEP, 20 units/mL pyruvate kinase and 50 unit/mL lactate dehydrogenase) is stirred. In the case of measurement of hydrolysis of ATP by the SMPs, the vessel also contains 3 μM antimycin and 3 μM FCCP.
After recording for 2 to 4 minutes, a labelled polypeptide of the invention is injected into the measurement vessel at a concentration range of 15 nM to 2 μM and the ATPase activity decreases. The recordings are analysed and adjusted with a decreasing monoexponential function (equation 1 shown below) corresponding to the decline in the ATPase activity.
By plotting the values of kapp obtained as a function of the concentration of IF1, the formation rate constant (kon) and dissociation rate constant (koff) of the inhibited complex F1ATPase/IF1 are determined according to the following equation: kapp=kon[I]+koff
The relationship between the ratio V(I)/V(0) and the concentration of labelled polypeptide of the invention are linked according to the following equation:
V(I)/V(0)=Vr+(1−Vr)/(1+[I]/k1),
in which Vr is the fraction of V0 insensitive to IF1 inhibition.

ATPase = ATPase (Homo sapiens, UniProt P06576+P25705); settings: fragment of IF1 of less than 34 amino acids in a fusion protein; cited from earlier work
F1-ATPase = F1-ATPase (Bos taurus, UniProt P00829+P19483); settings: point mutations of bovine IF1; cited from earlier work

affinity for ATP synthase compared to that of natural IF1 [1]: better affinity for ATP synthase
Molecule: SEQ ID NO: 25: cysteine-containing peptide: cysteine inserted into the median region of SEQ ID NO: 9, for labelling with the spin label MTSL (SEDSFVKRARATEDWFVRQREKEC(MTSL)QLRHLKEQLEKQRKK)

Molecule: fragment constituted by amino acid 14 to amino acid 46 of IF1: fragment of the protein IF1 in a fusion protein of US 2004/0072739 (AVRDAGGAFGKREQAEEERYFRARAKEQLAALK; UniProt P01096 39-71, looked up, fragment)
ATPase inhibiting activity (ATPase): better ATPase inhibiting activity

B1: Y33W: modified bovine IF1 containing the point mutation Y33W (Bason et al.) (protein, UniProt P01096 26-109, looked up, variant Y33W)
ATPase inhibitor, …: GSESGDNVRSSAGAVRDAGGAFGKREQAEEERWFRARAKEQLAALKKHHENEISHHAKEIERLQKEIERHKQSIKKLKQSEDDD
affinity for F1-ATPase compared to the natural bovine IF1 (F1-ATPase): better affinity
